Measurements published in patent US20030147847A1 (IMMUNEX, published 2003).

B1: Full length UL16 on transfected 293 EBNA cells (other)
chain: VDLGSKSSNSTCRLNVTELASIHPGETWTLHGMCISICYYENVTEDEIIGVAFTWQHNESVVDLWLYQNDTVIRNFSDITTNILQDGLKMRTVPVTKLYTSRMVTNLTVGRYDCLRCENGTTKIIERLYVRLGSLYPRPPGSGLAKHPSVSADEELSATLARDIVLVSAITLFFFLLALRIPQRLCQRLRIRLPHRYQRLRTED
notes: whole, on cells; also called UL16 FL
B2: MICA/Fc (Fc fusion, UniProt Q29983 24-307, looked up)
chain: EPHSLRYNLTVLSWDGSVQSGFLTEVHLDGQPFLRCDRQKCRAKPQGQWAEDVLGNKTWDRETRDLTGNGKDLRMTLAHIKDQKEGLHSLQEIRVCEIHEDNSTRSSQHFYYDGELFLSQNLETKEWTMPQSSRAQTLAMNVRNFLKEDAMKTKTHYHAMHADCLQELRRYLKSGVVLRRTVPPMVNVTRSEASEGNITVTCRASGFYPWNITLSWRQDGVSLSHDTQQWGDVLPDGNGTYQTWVATRICQGEEQRFTCYMEHSGNHSTHPVPSGKVLVLQSHW
notes: not shown: Fc portion not described

Assays:
[1] = target: NKG2D alone on transfected 293 EBNA cells (UniProt P26718); experiment: flow cytometry, transfected 293 EBNA cells, 2 µg Fc protein + goat anti-human IgG PE
[2] = target: FLAG tagged Dap10 alone on transfected 293 EBNA cells (UniProt Q9UBK5); experiment: as above
[3] = target: NKG2D/Dap10 on transfected 293E cells (UniProt P26718); experiment: as above
[4] = target: Full length UL16 on transfected 293 EBNA cells (human cytomegalovirus) (UniProt P16757); experiment: as above
[5] = target: T1, NKG2D/Dap10 on transfected 293E cells (UniProt P26718 1-216; Q9UBK5 19-93); experiment: flow cytometry; NKG2D/Dap10-transfected 293E cells preincubated with 25 µg ULBP1/LZ (competitor)
T1 construct: whole, on cells; Co-expressed on 293 EBNA (293E) cells from the pDC409 vector; also called NKG2D+FLAG tagged Dap10
T1 sequence 1: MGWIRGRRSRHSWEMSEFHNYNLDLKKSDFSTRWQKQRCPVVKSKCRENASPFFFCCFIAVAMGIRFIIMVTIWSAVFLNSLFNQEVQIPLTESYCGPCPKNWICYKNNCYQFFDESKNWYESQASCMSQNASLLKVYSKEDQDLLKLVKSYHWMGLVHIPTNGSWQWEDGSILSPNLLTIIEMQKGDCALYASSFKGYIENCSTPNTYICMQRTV
T1 sequence 2: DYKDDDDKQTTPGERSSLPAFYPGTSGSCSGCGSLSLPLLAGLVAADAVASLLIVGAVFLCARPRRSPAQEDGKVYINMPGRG

[6] = target: T1, NKG2D/Dap10 on transfected 293E cells; experiment: flow cytometry, transfected 293 EBNA cells, 2 µg Fc protein + goat anti-human IgG PE
[7] = target: T1, NKG2D/Dap10 on transfected 293E cells; experiment: flow cytometry; NKG2D/Dap10-transfected 293E cells preincubated with 25 µg hCD40L/LZ (control blocking protein)
ULBP3/Fc (human) = ULBP3/Fc (human) (UniProt Q9BZM4); experiment: flow cytometry; ULBP3/FC preincubated with excess isotype control antibody, then added to 293E cells transfected with NKG2D/Dap10; goat anti-huIg PE
ULBP3/Fc (human), sequence (Q9BZM4 30-217): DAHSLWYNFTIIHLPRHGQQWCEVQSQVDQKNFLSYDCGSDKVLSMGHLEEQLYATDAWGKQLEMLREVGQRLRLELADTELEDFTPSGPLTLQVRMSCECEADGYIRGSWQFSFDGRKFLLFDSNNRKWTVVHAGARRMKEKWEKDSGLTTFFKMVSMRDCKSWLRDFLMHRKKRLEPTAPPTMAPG

[8] = target: human ULBP1-Fc fusion polypeptide (human); experiment: flow cytometry; ULBP1/FC preincubated with excess isotype control antibody, then added to 293E cells transfected with NKG2D/Dap10; goat anti-huIg PE
[9] = target: human ULBP2-Fc fusion polypeptide (human); experiment: flow cytometry; ULBP2/FC preincubated with excess isotype control antibody, then added to 293E cells transfected with NKG2D/Dap10; goat anti-huIg PE
PERB11/Fc = experiment: flow cytometry; PERB11/FC preincubated with excess isotype control antibody, then added to 293E cells transfected with NKG2D/Dap10; goat anti-huIg PE
[10] = target: T1, NKG2D/Dap10 on transfected 293E cells; experiment: flow cytometry; NKG2D/Dap10-transfected 293E cells, M1 + sheep anti-mouse IgG PE (expression control)
[11] = target: NKG2D alone on transfected 293 EBNA cells (UniProt P26718); experiment: flow cytometry, transfected 293 EBNA cells, M1 + sheep anti-mouse IgG PE
[12] = target: FLAG tagged Dap10 alone on transfected 293 EBNA cells (UniProt Q9UBK5); experiment: as above
[13] = target: Full length UL16 on transfected 293 EBNA cells (human cytomegalovirus) (UniProt P16757); experiment: as above
[14] = target: T1, NKG2D/Dap10 on transfected 293E cells; experiment: as above
[15] = target: T1, NKG2D/Dap10 on transfected 293E cells; experiment: flow cytometry; NKG2D/Dap10-transfected 293E cells, M1 + sheep anti-mouse IgG PE (expression control); remark: listed apart in the source
MICA/Fc = target: B2; experiment: flow cytometry on 293 EBNA cells transfected with full length UL16
[16] = target: T2, FLAG tagged Dap10 alone on transfected 293 EBNA cells (UniProt Q9UBK5 19-93); experiment: flow cytometry, transfected 293 EBNA cells, 2 µg Fc protein + goat anti-human IgG PE
T2 construct: whole, on cells
T2 sequence: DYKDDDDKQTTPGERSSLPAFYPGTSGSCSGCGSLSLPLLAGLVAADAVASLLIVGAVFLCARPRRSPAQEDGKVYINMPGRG

[17] = target: B1; experiment: as above
[18] = target: T3, NKG2D alone on transfected 293 EBNA cells (UniProt P26718 1-216, limits assumed); experiment: as above
T3 construct: whole, on cells
T3 sequence (looked up): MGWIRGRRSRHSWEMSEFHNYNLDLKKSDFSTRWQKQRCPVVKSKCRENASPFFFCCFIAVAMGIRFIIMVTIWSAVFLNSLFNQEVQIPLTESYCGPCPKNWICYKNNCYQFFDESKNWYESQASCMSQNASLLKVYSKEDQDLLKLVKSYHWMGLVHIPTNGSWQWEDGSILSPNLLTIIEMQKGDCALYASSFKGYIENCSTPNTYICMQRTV

Molecule | Mean Fluorescence Intensity (MFI) [5] [MFI] | Mean Fluorescence Intensity (MFI) [6] [MFI] | Mean Fluorescence Intensity (MFI) [7] [MFI] | Mean Fluorescence Intensity (MFI) [16] [MFI] | Mean Fluorescence Intensity (MFI) [17] [MFI] | Mean Fluorescence Intensity (MFI) [18] [MFI] | other results
p7.5/Fc (Fc fusion) | – | – | – | – | – | – | Mean Fluorescence Intensity (MFI) [1]: 9.99 MFI; Mean Fluorescence Intensity (MFI) [2]: 12.1 MFI; Mean Fluorescence Intensity (MFI) [3]: 12.2 MFI; Mean Fluorescence Intensity (MFI) [4]: 12.1 MFI
PERB11/Fc (Fc fusion) | 11 | 109 | 280 | – | – | – | Mean Fluorescence Intensity (MFI) [1]: 10.2 MFI; Mean Fluorescence Intensity (MFI) [2]: 12.7 MFI; Mean Fluorescence Intensity (MFI) [4]: 161 MFI
antibody M90 (isotype matched control antibody) | – | – | – | – | – | – | MFI of staining protein on NKG2D/Dap10 cells after preincubation with blocking antibody (ULBP3/Fc (human)): 160 MFI; MFI of staining protein on NKG2D/Dap10 cells after preincubation with blocking antibody [8]: 216 MFI; MFI of staining protein on NKG2D/Dap10 cells after preincubation with blocking antibody [9]: 192 MFI; MFI of staining protein on NKG2D/Dap10 cells after preincubation with blocking antibody (PERB11/Fc): 167 MFI
M1 anti-FLAG antibody | – | – | – | – | – | – | Mean Fluorescence Intensity (MFI) [10]: 368 MFI; Mean Fluorescence Intensity (MFI) [11]: 8.49 MFI; Mean Fluorescence Intensity (MFI) [12]: 112 MFI; Mean Fluorescence Intensity (MFI) [13]: 11.3 MFI; Mean Fluorescence Intensity (MFI) [14]: 130 MFI; Mean Fluorescence Intensity (MFI) [15]: 261 MFI
B1 | – | – | – | – | – | – | binding result (MICA/Fc): no binding (tested: 2 µg)
MICB/Fc (Fc fusion, UniProt Q29980 23-309, looked up, also called MICB1/FC; not shown: Fc portion not described) AEPHSLRYNLMVLSQDGSVQSGFLAEGHLDGQPFLRYDRQKRRAKPQGQWAENVLGAKTWDTETEDLTENGQDLRRTLTHIKDQKGGLHSLQEIRVCEIHEDSSTRGSRHFYYDGELFLSQNLETQESTVPQSSRAQTLAMNVTNFWKEDAMKTKTHYRAMQADCLQKLQRYLKSGVAIRRTVPPMVNVTCSEVSEGNITVTCRASSFYPRNITLTWRQDGVSLSHNTQQWGDVLPDGNGTYQTWVATRIRQGEEQRFTCYMEHSGNHGTHPVPSGKALVLQSQRTD | 9 | 118 | 258 | 18.4 | 94.5 | 9.58 | –
UL16-Fc fusion protein (Fc fusion, extracellular domain; not shown: IgG1 Fc (mutein form), as described for OX40-Fc (Baum et al., EMBO J. 13:3992-4001, 1994); the mutein is described in p-) VDLGSKSSNSTCRLNVTELASIHPGETWTLHGMCISICYYENVTEDEIIGVAFTWQHNESVVDLWLYQNDTVIRNFSDITTNILQDGLKMRTVPVTKLYTSRMVTNLTVGRYDCLRCENGTTKIIERLYVRLGSLYPRPPGSGLAKHPSVSADEELSA | – | 21.2 | – | 39.2 | 17.9 | 27.9 | –
human ULBP2-Fc fusion polypeptide (Fc fusion, ULBP-2 extracellular domain (residues 1-223) fused to the human IgG1 Fc mutein) WSRAGRADPHSLCYDITVIPKFRPGPRWCAVQGQVDEKTFLHYDCGNKTVTPVSPLGKKLNVTTAWKAQNPVLREVVDILTEQLRDIQLENYTPKEPLTLQARMSCEQKAEGHSSGSWQFSFDGQIFLLFDSEKRMWTTVHPGARKMKEKWENDKVVAMSFHYFSMGDCIGWLEDFLMGMDSTLEPSAGAPLAMSSGTTQLRRSCDKTHTCPPCPAPEAEGAPSVFLFPPKPKDTLMISRTPEVTCVVVDVSHEDPEVKFNWYVDGVEVHNAKTKPREEQYNSTYRVVSVLTVLHQDWLNGKEYKCKVSNKALPAPIEKTISKAKGQPREPQVYTLPPSRDELTKNQVSLTCLVKGFYPSDIAVEWESNGQPENNYKTTPPVLDSDGSFFLYSKLTVDKSRWQQGNVFSCSVMHEALHNHYTQKSLSLSPGK | 8 | 117 | 236 | 11.5 | 121 | 8.96 | –
human ULBP1-Fc fusion polypeptide (Fc fusion, ULBP-1 extracellular domain fused to the human IgG1 Fc mutein) WSRAGWVDTHCLCYDFIITPKSRPEPQWCEVQGLVDERPFLHYDCVNHKAKAFASLGKKVNVTKTWEEQTETLRDVVDFLKGQLLDIQVENLIPIEPLTLQARMSCEHEAHGHGRGSWQFLFNGQKFLLFDSNNRKWTALHPGAKKMTEKWEKNRDVTMFFQKISLGDCKMWLEEFLMYWEQMLDPTKPPSLAPGTTQPRSCDKTHTCPPCPAPEAEGAPSVFLFPPKPKDTLMISRTPEVTCVVVDVSHEDPEVKFNWYVDGVEVHNAKTKPREEQYNSTYRVVSVLTVLHQDWLNGKEYKCKVSNKALPAPIEKTISKAKGQPREPQVYTLPPSRDELTKNQVSLTCLVKGFYPSDIAVEWESNGQPENNYKTTPPVLDSDGSFFLYSKLTVDKSRWQQGNVFSCSVMHEALHNHYTQKSLSLSPGK | 11 | 115 | 263 | 13.6 | 142 | 10.4 | –
B2 | 11 | 120 | 256 | 12 | 14 | 15.4 | –
